According to publication PMC9501438 (International Journal of Molecular Sciences, 2022):

B1: Arkadia 90 aa polypeptide (domain or fragment)
chain: CTYPHKYKKVTTDWFSQRKLHCKQDGEEGTEEDTEEKCTICLSILEEGEDVRRLPCMHLFHQVCVDQWLITNKKCPICRVDIEAQLPSES
notes: Arkadia (RNF111), human, isoform 1, residues 905-994: NLS, the segment unique to isoform 1 and the RING-H2 domain; Cloned into pGEX-4T-1; also called Ark 90 aa; source: E. coli, purified (GST-trap, thrombin cleavage, Superdex 75 SEC); not shown: GST, N-terminal, cleaved
B2: Arkadia RING 68 aa (domain or fragment)
chain: KQDGEEGTEEDTEEKCTICLSILEEGEDVRRLPCMHLFHQVCVDQWLITNKKCPICRVDIEAQLPSES
notes: Cloned into pGEX-4T-1; also called Ark RING 68aa; Ark 68 aa; source: E. coli, purified (GST-trap, thrombin cleavage, Superdex 75 SEC); not shown: GST, N-terminal, cleaved
B3: Arkadia 119 aa polypeptide (domain or fragment)
chain: FRGNFEELIHLEERLGNVNRGASQGTIERCTYPHKYKKVTTDWFSQRKLHCKQDGEEGTEEDTEEKCTICLSILEEGEDVRRLPCMHLFHQVCVDQWLITNKKCPICRVDIEAQLPSES
notes: Cloned into pGEX-4T-1; source: E. coli, purified (GST-trap, thrombin cleavage, Superdex 75 SEC); not shown: GST, N-terminal, cleaved

Tests used:
[1] = biological target: T1, UBCH5B (UniProt P62837 1-147); experiment: ITC; Microcal PEAQ ITC, 25 °C; 75-200 uM Arkadia polypeptide in the cell, 0.75-2 mM UBCH5B from the syringe in 2 uL injections; single site-binding model; settings: both partners purified
T1 construct: UBCH5B, E2 ubiquitin-conjugating enzyme, wild type; 15N-labelled in the NMR titrations; also called E2 enzyme UBCH5B; wt UBCH5B

[2] = biological target: T1, UBCH5B; experiment: as above; settings: both partners purified; remark: listed apart in the source

Binder	Kd [1]	Kd [2]
B1	23 µM	
B2		32 µM
B3		2.7 µM
